According to article PMC11253593:

Tests used:
[1] = biological target: eGFP-DdrI (DdrI with N-terminal fused eGFP) (Deinococcus radiodurans); experiment: SEC; gel filtration of the purified protein to check homogeneity and oligomeric state; also run with cAMP and Mn2+ added (dimer formation not affected)
[2] = biological target: DdrI (DR0997), CRP family protein from Deinococcus radiodurans, untagged (Deinococcus radiodurans); experiment: as above

eGFP-DdrI (DdrI with N-terminal fused eGFP) (natural protein)
stoichiometry N [1]: 2

DdrI (DR0997), CRP family protein from Deinococcus radiodurans, untagged (natural protein)
stoichiometry N [2]: 2
